Experiment [1] deals with T1, FcγRIa extracellular domain with C-terminal His tag (human, UniProt P12314 16-292).
T1 construct: extracellular domain; Expressed in FreeStyle293 cells; analyte in the Biacore assay; also called FcgRI; 1a; not shown: His tag at the C terminus
Description: SPR (Biacore), antibody captured on antigen-peptide chip, FcγR as analyte; relative binding. A general note: Surface plasmon resonance follows binding to a sensor surface in real time, without labels.
T1 sequence (P12314 16-292): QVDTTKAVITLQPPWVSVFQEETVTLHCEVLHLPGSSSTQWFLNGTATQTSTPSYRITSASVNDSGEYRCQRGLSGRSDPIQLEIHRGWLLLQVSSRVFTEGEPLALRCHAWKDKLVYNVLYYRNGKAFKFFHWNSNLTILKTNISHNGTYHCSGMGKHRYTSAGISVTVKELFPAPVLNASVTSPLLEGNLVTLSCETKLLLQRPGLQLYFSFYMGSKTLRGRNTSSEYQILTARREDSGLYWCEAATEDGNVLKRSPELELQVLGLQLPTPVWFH

Experiment [2] addresses T2, FcγRIIb extracellular domain with C-terminal His tag (human, UniProt P31994 43-217).
T2 construct: extracellular domain; Expressed in FreeStyle293 cells; analyte in the Biacore assay; also called FcgRIIb; 2b; not shown: His tag at the C terminus
T2 sequence (looked up): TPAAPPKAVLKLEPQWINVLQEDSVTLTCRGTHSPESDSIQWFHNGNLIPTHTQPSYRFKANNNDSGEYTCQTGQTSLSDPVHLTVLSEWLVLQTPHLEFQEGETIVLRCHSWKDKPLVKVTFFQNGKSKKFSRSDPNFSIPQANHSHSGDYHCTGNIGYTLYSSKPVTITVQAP
Described as above.

Experiment [3] deals with T3, FcγRIa extracellular domain with C-terminal His tag (human, UniProt P12314 16-292).
T3 construct: extracellular domain; Soluble receptor expressed in FreeStyle293 cells and used as analyte in Biacore; also called FcgRI; 1a; not shown: His tag at the C terminus
Description: SPR Biacore, relative binding amount.
T3 sequence (P12314 16-292): as the sequence (P12314 16-292) above

In experiment [4] the target is T4, FcγRIIb extracellular domain with C-terminal His tag (human, UniProt P31994 43-217).
T4 construct: extracellular domain; Soluble receptor expressed in FreeStyle293 cells and used as analyte in Biacore; also called FcgRIIb; 2b; not shown: His tag at the C terminus
T4 sequence (looked up): T2 sequence (looked up)
Description: SPR Biacore, relative binding amount.

The record followed here is patent US20180155451A1 (published 2018).

B1: GpH7-A5/GpH7-B3 variant E269_07I/GpL16-k0 (He Ab) (antibody, human IgG1, kappa)
heavy 1: not shown
heavy 2: not shown
light: DIVMTQSPLSLPVTPGEPASISCQASESLVHSNRNTYLHWYLQKPGQSPQLLIYKVSNRFSGVPDRFSGSGSGTDFTLKISRVEAEDVGVYYCSQNTHVPPTFGQGTKVEIERTVAAPSVFIFPPSDEQLKSGTASVVCLLNNFYPREAKVQWKVDNALQSGNSQESVTEQDSKDSTYSLSSTLTLSKADYEKHKVYACEVTHQGLSSPVTKSFNRGEC
notes: Heterodimerized anti-glypican-3 IgG1; the mutation stands in the GpH7-B3 chain only
For the molecule B1, the He/Con_1a in experiment [1] is 103 % of GpH7-A5/GpH7-B3/GpL16-k0 (=100). For the same molecule, the He/Con_2b in experiment [2] was 43.9 % of GpH7-A5/GpH7-B3/GpL16-k0 (=100).

B2: heterodimerized antibody GpH7-A5/GpH7-B3 variant E333_15Y/GpL16-k0 (antibody, human IgG1, kappa)
heavy 1: not shown
heavy 2: not shown
light: B1 light
notes: Substitution in only one H chain (GpH7-B3 side); also called He Ab
B2: the He/Con_1a in experiment [3] was 101 % of GpH7-A5/GpH7-B3/GpL16-k0 (=100). Further, the He/Con_2b in experiment [4] is 94.4 % of GpH7-A5/GpH7-B3/GpL16-k0 (=100).

B3: GpH7-A5/GpH7-B3 variant H268_11K/GpL16-k0 (He Ab) (antibody, human IgG1, kappa)
heavy 1: not shown
heavy 2: not shown
light: B1 light
notes: as for B1
Take B3: in experiment [1], the He/Con_1a was 106 % of GpH7-A5/GpH7-B3/GpL16-k0 (=100). The He/Con_2b in experiment [2] is 83 % of GpH7-A5/GpH7-B3/GpL16-k0 (=100).

B4: GpH7-A5/GpH7-B3 variant E269_15Y/GpL16-k0 (He Ab) (antibody, human IgG1, kappa)
heavy 1: not shown
heavy 2: not shown
light: B1 light
notes: as for B1
In the case of B4, the He/Con_1a in experiment [1] was 106 % of GpH7-A5/GpH7-B3/GpL16-k0 (=100). Further, in experiment [2], the He/Con_2b is 44.7 % of GpH7-A5/GpH7-B3/GpL16-k0 (=100).

B5: GpH7-A5/GpH7-B3 variant Y300_20W/GpL16-k0 (He Ab) (antibody, human IgG1, kappa)
heavy 1: not shown
heavy 2: not shown
light: B1 light
notes: as for B1
Consider B5, for which the He/Con_1a in experiment [1] is 112 % of GpH7-A5/GpH7-B3/GpL16-k0 (=100). Also, in experiment [2], the He/Con_2b is 84.1 % of GpH7-A5/GpH7-B3/GpL16-k0 (=100).

B6: GpH7-A5/GpH7-B3 variant Y300_09D/GpL16-k0 (He Ab) (antibody, human IgG1, kappa)
heavy 1: not shown
heavy 2: not shown
light: B1 light
notes: as for B1
As to B6, in experiment [1], the He/Con_1a is 112 % of GpH7-A5/GpH7-B3/GpL16-k0 (=100). Moreover, in experiment [2], the He/Con_2b was 93.2 % of GpH7-A5/GpH7-B3/GpL16-k0 (=100).

B7: GpH7-A5/GpH7-B3 variant S298_20W/GpL16-k0 (He Ab) (antibody, human IgG1, kappa)
heavy 1: not shown
heavy 2: not shown
light: B1 light
notes: as for B1
In the case of B7, in experiment [1], the He/Con_1a is 104 % of GpH7-A5/GpH7-B3/GpL16-k0 (=100). Further, the He/Con_2b in experiment [2] is 41.1 % of GpH7-A5/GpH7-B3/GpL16-k0 (=100).

B8: heterodimerized antibody GpH7-A5/GpH7-B3 variant E333_16H/GpL16-k0 (antibody, human IgG1, kappa)
heavy 1: not shown
heavy 2: not shown
light: B1 light
notes: as for B2
B8: the He/Con_1a in experiment [3] is 101 % of GpH7-A5/GpH7-B3/GpL16-k0 (=100). Also, the He/Con_2b in experiment [4] was 83.3 % of GpH7-A5/GpH7-B3/GpL16-k0 (=100).

B9: heterodimerized antibody GpH7-A5/GpH7-B3 variant E333_09D/GpL16-k0 (antibody, human IgG1, kappa)
heavy 1: not shown
heavy 2: not shown
light: B1 light
notes: as for B2
In the case of B9, the He/Con_1a in experiment [3] is 104 % of GpH7-A5/GpH7-B3/GpL16-k0 (=100). For the same molecule, the He/Con_2b in experiment [4] was 94.3 % of GpH7-A5/GpH7-B3/GpL16-k0 (=100).

B10: GpH7-A5/GpH7-B3 variant S324_03V/GpL16-k0 (He Ab) (antibody, human IgG1, kappa)
heavy 1: not shown
heavy 2: not shown
light: B1 light
notes: as for B1
For B10, in experiment [1], the He/Con_1a was 104 % of GpH7-A5/GpH7-B3/GpL16-k0 (=100). Besides, the He/Con_2b in experiment [2] is 97.8 % of GpH7-A5/GpH7-B3/GpL16-k0 (=100).

B11: GpH7-A5/GpH7-B3 variant H268_14T/GpL16-k0 (He Ab) (antibody, human IgG1, kappa)
heavy 1: not shown
heavy 2: not shown
light: B1 light
notes: as for B1
Turning to B11, the He/Con_1a in experiment [1] is 112 % of GpH7-A5/GpH7-B3/GpL16-k0 (=100). In addition, the He/Con_2b in experiment [2] is 86 % of GpH7-A5/GpH7-B3/GpL16-k0 (=100).

B12: GpH7-A5/GpH7-B3 variant E269_16H/GpL16-k0 (He Ab) (antibody, human IgG1, kappa)
heavy 1: not shown
heavy 2: not shown
light: B1 light
notes: as for B1
With B12, the He/Con_1a in experiment [1] was 106 % of GpH7-A5/GpH7-B3/GpL16-k0 (=100). In experiment [2], the He/Con_2b is 38.5 % of GpH7-A5/GpH7-B3/GpL16-k0 (=100).

B13: GpH7-A5/GpH7-B3 variant Y300_11K/GpL16-k0 (He Ab) (antibody, human IgG1, kappa)
heavy 1: not shown
heavy 2: not shown
light: B1 light
notes: as for B1
On to B13, for which the He/Con_1a in experiment [1] is 107 % of GpH7-A5/GpH7-B3/GpL16-k0 (=100). The He/Con_2b in experiment [2] was 51.6 % of GpH7-A5/GpH7-B3/GpL16-k0 (=100).

B14: GpH7-A5/GpH7-B3 variant Y300_03V/GpL16-k0 (He Ab) (antibody, human IgG1, kappa)
heavy 1: not shown
heavy 2: not shown
light: B1 light
notes: as for B1
For B14, the He/Con_1a in experiment [1] is 117 % of GpH7-A5/GpH7-B3/GpL16-k0 (=100). Also, in experiment [2], the He/Con_2b is 73.9 % of GpH7-A5/GpH7-B3/GpL16-k0 (=100).

B15: GpH7-A5/GpH7-B3 variant H268_08L/GpL16-k0 (He Ab) (antibody, human IgG1, kappa)
heavy 1: not shown
heavy 2: not shown
light: B1 light
notes: as for B1
Take B15: the He/Con_1a in experiment [1] is 107 % of GpH7-A5/GpH7-B3/GpL16-k0 (=100). Also, the He/Con_2b in experiment [2] was 67.8 % of GpH7-A5/GpH7-B3/GpL16-k0 (=100).

B16: GpH7-A5/GpH7-B3 variant Y300_06M/GpL16-k0 (He Ab) (antibody, human IgG1, kappa)
heavy 1: not shown
heavy 2: not shown
light: B1 light
notes: as for B1
As to B16, the He/Con_1a in experiment [1] is 112 % of GpH7-A5/GpH7-B3/GpL16-k0 (=100). For the same molecule, the He/Con_2b in experiment [2] is 84.3 % of GpH7-A5/GpH7-B3/GpL16-k0 (=100).

B17: GpH7-A5/GpH7-B3 variant Y300_08L/GpL16-k0 (He Ab) (antibody, human IgG1, kappa)
heavy 1: not shown
heavy 2: not shown
light: B1 light
notes: as for B1
As for B17, the He/Con_1a in experiment [1] was 113 % of GpH7-A5/GpH7-B3/GpL16-k0 (=100). Moreover, the He/Con_2b in experiment [2] is 73.6 % of GpH7-A5/GpH7-B3/GpL16-k0 (=100).

B18: GpH7-A5/GpH7-B3 variant H268_07I/GpL16-k0 (He Ab) (antibody, human IgG1, kappa)
heavy 1: not shown
heavy 2: not shown
light: B1 light
notes: as for B1
With B18, the He/Con_1a in experiment [1] was 108 % of GpH7-A5/GpH7-B3/GpL16-k0 (=100). Further, in experiment [2], the He/Con_2b is 88.9 % of GpH7-A5/GpH7-B3/GpL16-k0 (=100).

B19: GpH7-A5/GpH7-B3 variant E269_12R/GpL16-k0 (He Ab) (antibody, human IgG1, kappa)
heavy 1: not shown
heavy 2: not shown
light: B1 light
notes: as for B1
For the molecule B19, the He/Con_1a in experiment [1] is 97.1 % of GpH7-A5/GpH7-B3/GpL16-k0 (=100). In experiment [2], the He/Con_2b is 25.2 % of GpH7-A5/GpH7-B3/GpL16-k0 (=100).

B20: GpH7-A5/GpH7-B3 variant E269_14T/GpL16-k0 (He Ab) (antibody, human IgG1, kappa)
heavy 1: not shown
heavy 2: not shown
light: B1 light
notes: as for B1
On to B20, for which the He/Con_1a in experiment [1] is 106 % of GpH7-A5/GpH7-B3/GpL16-k0 (=100). Moreover, the He/Con_2b in experiment [2] is 50.6 % of GpH7-A5/GpH7-B3/GpL16-k0 (=100).
